These results are taken from PMC1888729, “Control of Pre-mRNA Splicing by the General Splicing Factors PUF60 and U2AF^65” (PLoS ONE, 2007).

Data set [1] concerns the molecule itself. The data set can be described thus: SDS-PAGE and western blot; His-tagged PUF60 (~3.6 pmol) purified from HEK-293E cells, blot probed for PUF60. On the technique in general: In western blotting, separated proteins are transferred to a membrane and probed.
Data set [2] concerns the molecule itself. The data set can be described thus: SDS-PAGE and western blot; heparin fraction of HeLa nuclear extract, blot probed for PUF60.

B1: His-tagged PUF60 (PUF60S, HEK-293E) (natural protein, human, UniProt Q9UHX1-2 1-542, looked up)
chain: MATATIALQVNGQQGGGSEPAAAAAVVAAGDKWKPPQGTDSIKMENGQSTAAKLGLPPLTPEQQEALQKAKKYAMEQSIKSVLVKQTIAHQQQQLTNLQMAAQRQRALAIMCRVYVGSIYYELGEDTIRQAFAPFGPIKSIDMSWDSVTMKHKGFAFVEYEVPEAAQLALEQMNSVMLGGRNIKVGRPSNIGQAQPIIDQLAEEARAFNRIYVASVHQDLSDDDIKSVFEAFGKIKSCTLARDPTTGKHKGYGFIEYEKAQSSQDAVSSMNLFDLGGQYLRVGKAVTPPMPLLTPATPGGLPPAAAVAAAAATAKITAQEAVAGAAVLGTLGTPGLVSPALTLAQPLGTLPQAVMAAQAPGVITGVTPARPPIPVTIPSVGVVNPILASPPTLGLLEPKKEKEEEELFPESERPEMLSEQEHMSISGSSARHMVMQKLLRKQESTVMVLRNMVDPKDIDDDLEGEVTEECGKFGAVNRVIIYQEKQGEEEDAEIIVKIFVEFSIASETHKAIQALNGRWFAGRKVVAEVYDQERFDNSDLSA
notes: PUF60S, the isoform of human PUF60 that lacks alternative exon 5; amplified from pGAD-GH-RoBPI-47,3 with the primers PUF60Hisstart and PUFresmutD; About 60% of the protein ran as an SDS-resistant dimer; also called recombinant PUF60; PUFS; source: HEK-293E, transiently transfected with pTT3-HisPUFS, purified (Ni-NTA agarose)
As usually defined, the stoichiometry N is the number of molecules, sites or subunits per partner or assembly. Consider B1, for which the “stoichiometry N” value in data set [1] is 2.

B2: PUF60 (endogenous, heparin fraction of HeLa nuclear extract) (natural protein, human (endogenous in HeLa), UniProt Q9UHX1 1-559, looked up)
chain: MATATIALQVNGQQGGGSEPAAAAAVVAAGDKWKPPQGTDSIKMENGQSTAAKLGLPPLTPEQQEALQKAKKYAMEQSIKSVLVKQTIAHQQQQLTNLQMAAVTMGFGDPLSPLQSMAAQRQRALAIMCRVYVGSIYYELGEDTIRQAFAPFGPIKSIDMSWDSVTMKHKGFAFVEYEVPEAAQLALEQMNSVMLGGRNIKVGRPSNIGQAQPIIDQLAEEARAFNRIYVASVHQDLSDDDIKSVFEAFGKIKSCTLARDPTTGKHKGYGFIEYEKAQSSQDAVSSMNLFDLGGQYLRVGKAVTPPMPLLTPATPGGLPPAAAVAAAAATAKITAQEAVAGAAVLGTLGTPGLVSPALTLAQPLGTLPQAVMAAQAPGVITGVTPARPPIPVTIPSVGVVNPILASPPTLGLLEPKKEKEEEELFPESERPEMLSEQEHMSISGSSARHMVMQKLLRKQESTVMVLRNMVDPKDIDDDLEGEVTEECGKFGAVNRVIIYQEKQGEEEDAEIIVKIFVEFSIASETHKAIQALNGRWFAGRKVVAEVYDQERFDNSDLSA
notes: PUF60 of HeLa nuclear extract; Seen as a monomer and as an SDS-resistant dimer; also called FIR; RoBP1; source: endogenous, HeLa nuclear extract, fractionated (20-40% ammonium sulfate, CsCl gradient, Poros heparin column)
For the protein B2, the “stoichiometry N” value in data set [2] stood at 2.
